Holding throughout (format): cell-based, human
Experiment [1] deals with AR-regulated gene mRNA in LNCaP cells. Briefly: Real-time quantitative reverse-transcription PCR of LNCaP ebp1 transfectants. As to the method:
Real-Time Quantitative Reverse-Transcription PCR: The method of […] et al. (Nakanishi et al., 2003, Quantitative Analysis of Breast Cancer Resistance Protein and Cellular Resistance to Flavopiridol in Acute Leukemia Patients, Clin. Cancer Res., 9: 3320-3328) was used as previously described. […] Real-time quantitative RT-PCR was then performed on the LightCycler (Roche, Indianapolis, Ind.) platform to determine the relative mRNA levels of Ebp1, AR, kallikrein-2 and POV-1. The following forward and reverse primers were selected using Primer Express software and synthesized by Core Laboratory of University of Maryland School of Medicine: Ebp1, sense: […] [NT] ID NO: 6) and antisense: 5° […] ID NO: 7), Kallikrein-2, sense: [NT] ID NO: 8) and antisense: [NT] ID NO: 9), POV-1, sense: [NT] ID NO: 10) and antisense: [NT] ID NO: 11), Actin, sense: [NT] ID NO: 12) and antisense […] ID NO: 13). An SRBR Green PCR Kit was used (Applied Biosystems, Foster City, Calif.), and the analyses were performed in duplicate or triplicate in a total volume of 15 μl including 0.9 μl of 25 mM MgCl2, 1.5 μl SYBR Green I, 0.3 μl Enzyme Mix, 0.75 μl of each primer (50 ng/μl), and 2 μl of cDNA synthesized with random hexamers. Target mRNA values were normalized using actin mRNA as an internal control. The relative quantitation of gene expression was performed using the comparative ΔΔ Ct (threshold method) using β-actin as an internal control ([…] et al., 2002, The Nonsteroidal Anti-Inflammatory Drug Sulindac Causes Down-Regulation of Signal Transducer and Activator of Transcription 3 in Human Oral Squamous Cell Carcinoma Cells, Cancer Research, 62:1004-1007). The results of the microarray analysis were validated using real-time quantitative reverse-transcription PCR, Western blot, and ELISA methods. […] The expression of POV-1 mRNA and protein were each decreased about two-fold. PSA secretion in the conditioned media of ebp1 and vector control cells was assessed by ELISA. […] Finally, […]-2 mRNA expression was decreased approximately 40%.

Experiment [2] relates to AR and POV-1 protein in LNCaP cells. Briefly: Western blot analysis of LNCaP ebp1 transfectants. The procedure: Western Blot Analysis: Briefly, total cell extracts were prepared by direct lysis of cells with buffer containing 50 mM Tris-HCl (pH 7.4), 1 mM EDTA, 250 mM NaCl, 1% Triton X-100, 0.5 mM dithiothreitol (DTT) and 1 mM phenylmethylsulfonyl (PMSF). Protein concentrations were measured using a detergent compatible kit (BioRad, Hercules, Calif.). Proteins were resolved by SDS-PAGE and analyzed by Western blotting as described (Xia et al., 2001, Analysis of the Expression Pattern of Ebp1, an ErbB-3-Binding Protein, Biochem. Biophys. Res. Commun., 289:240-244). The AR antibody was from Santa Cruz Biotechnology (Santa Cruz, Calif.), the Ebp1 antibody from Upstate (Lake Placid, N.Y.), the polyclonal antibody to actin from Sigma (St. Louis, Mo.), and the POV-1 antibody was a gift of Dr. Rodrigo Chugai, National Cancer Institute. The results of the microarray analysis were validated using real-time quantitative reverse-transcription PCR, Western blot, and ELISA methods. […] The expression of POV-1 mRNA and protein were each decreased about two-fold. PSA secretion in the conditioned media of ebp1 and vector control cells was assessed by ELISA. […] Finally, […]-2 mRNA expression was decreased approximately 40%.
(A western blot detects proteins with antibodies after separation by electrophoresis.)

Experiment [3] concerns secreted PSA of LNCaP cells. Kind of experiment: PSA secretion in conditioned media by ELISA. As to conditions: ebp1 transfectants vs controls. As to the method:
Measurement of PSA levels: Serum PSA levels were determined using a PSA ELISA kit from DSL, Inc (Webster, Tex.). […] Following a 1 h incubation and extensive washing of the plate, the wells were treated for 30 min with a second anti-PSA antibody labeled with horseradish peroxidase. After washing, the wells were treated with a tetramethylbendizine substrate for 10 min, and absorbance was read at 450 nm. The results of the microarray analysis were validated using real-time quantitative reverse-transcription PCR, Western blot, and ELISA methods. […] The expression of POV-1 mRNA and protein were each decreased about two-fold. PSA secretion in the conditioned media of ebp1 and vector control cells was assessed by ELISA. […] Finally, […]-2 mRNA expression was decreased approximately 40%.

For the next experiment, the system named is LNCaP cells. Kind of experiment: Growth in steroid-reduced medium with DHT and/or bicalutamide. The settings on record: ebp1 transfectants (vector controls approximately 70%). As to the method:
Cell Growth Assays: To measure growth in complete media, cells (2×10^4) were seeded in triplicate in individual wells of 12-well tissue culture plates in RPMI-1640 with 10% FBS and cultured for the indicated number of days. Cells were trypsinized, stained with Trypan Blue (0.4%), and counted in a hemacytometer. […] Colonies were counted after 10 days of incubation. For studies assessing the effect of dihydrotestosterone (DHT) on cell growth, cells (2×10^4) were plated in 12-well plates in complete media. After a 24-hour attachment period, the medium was replaced with steroid-free medium [phenol red-free RPMI 1640 and 5% charcoal-stripped FBS (Sigma)] for 48 hours. The final concentration of testosterone in the steroid-reduced media was less than 5 pM. After 48 hours of steroid depletion, cells were re-fed with fresh steroid-reduced medium with or without the indicated concentrations of DHT and/or bicalutamide (10 μM), and total cell numbers were assessed 7 days later.

B1: Ebp1: ErbB3 binding protein (SEQ ID NO: 2), tested by stable ectopic expression (ebp1 transfection) in LNCaP cells (protein)
chain: MSGEDEQQEQTIAEDLVVTKYKMGGDIANRVLRSLVEASSSGVSVLSLCEKGDAMIMEETGKIFKKEKEMKKGIAFPTSISVNNCVCHFSPLKSDQDYILKEGDLVKIDLGVHVDGFIANVAHTFVVDVAQGTQVTGRKADVIKAAHLCAEAALRLVKPGNQNTQVTEAWNKVAHSFNCTPIEGMLSHQLKQHVIDGEKTIIQNPTDQQKKDHEKAEFEVHEVYAVDVLVSSGEGKAKDAGQRTTIYKRDPSKQYGLKMKTSRAFFSEVERRFDAMPFTLRAFEDEKKARMGVVECAKHELLQPFNVLYEKEGEFVAQFKFTVLLMPNGPMRITSGPFEPDLYKSEMEVQDAELKALLQSSASRKTQKKKKKKASKTAENPTSGETLEENEAGD
modifications: Homo Sapien
On to B1, for which, in experiment [1], the “POV-1 mRNA decrease” value is “about two-fold” and the “kallikirein-2 mRNA expression decrease” value is reported as “approximately 40%”. For the same molecule, the “AR mRNA down-regulation” value in experiment [1] (real-time PCR) was “more than 2 fold”. In experiment [2] (Western blot, LNCaP ebp1 transfectants), the AR protein decrease result is “more than five-fold”. In experiment [2] (ebp1 transfectants), the POV-1 protein decrease entry is “about two-fold”. Further, the “secreted PSA protein downregulation” value in experiment [3] worked out at 10 fold. Moreover, the “growth inhibition by the withdrawal of androgens” value with LNCaP cells is 60%.

For the origin of these results see patent publication US7718626B2, “ErbB3 binding protein compositions and methods of use” (University of Maryland, Baltimore, priority 2005, dated 2010).
